Test: yeast display, Sf9 membrane polyspecificity reagent, FACS + sequencing; frameworks hold sequencing errors
Procedure, shortened: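 In a synthetic yeast display library (Saccharomyces cerevisiae BJ5465), nanobody expression was induced with galactose for 36–48 hours. FACS gates were set low and high (top ~1%) using anti-HA fluorescence for expression and streptavidin fluorescence for binding of the Sf9 membrane reagent. Each polyreactivity label is drawn from the gate of origin.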

Sequence	polyreactivity (PSR sort gate)
QVQLVESGGGLVQAGGSLRLSCAASGLIIYRYAMGWYRQAPGKERELVAAISSTGGRTYYADSVKGRFTISRDNAKNTVYLQMNSLKPEDTAVYYCNADYGWKYVQYYYWGQGTQVTVSS	high polyreactivity
QVQLVESGGGLVQAGGSLRLSCAASGRTFPSNVMGRYIQAHGKERELVAGITWRGGSTYYADSVKGRFTISRDNAKYTVYLQINSLKPEDTAVYYCAVRTQYRRYEYWGHGTQVTVSS	high polyreactivity
QVQLVESGGGLVQAGGSLRLSCAASGSTFPRNAMVWYIQAPGKERELVAAISRRGGSTYYADSVKGLFTISRDNAKNTVYLQMNSLKPEDTAVYYCAAATRYAIYGRYSRYDYWGQGTQVTVSS	high polyreactivity
QVQLVESGGGLVQAGGSLRLSCAASGNIFYINAMGWYRQAPGKERELVAAISSGGRTNYADSVKGRFTISRDNAKNTVYLQMNSLKPEDTAVYYCNADGWYAWRYYAPGGYDYWGQGTQVTVSS	low polyreactivity
QVQLVESVGGLVQAGGSLRLSCAASGSTFDKYAMGWYRQAPGKERELVATISQSGASTYYADSVKGRFTISRDNAKNTVYLQMNSLKPEDTAVYYCAARSSTRVWYWGRYYYWGQGTQVTVSS	high polyreactivity
QVQLVESGVCLDQAGGSLRLSCAASGRTFDYNAMGWYSQAPGKERELVAAIDSDGSTNYADSVKGRFTISRDNAKNTVYLQMNSLKPEDTAVYYCAASTLVVWKPGWQVEYGYWGQGTQVTVSS	low polyreactivity
QVQLVESGGGLVQAGGSLRLSCAASGRIFYIYAMGWSRQAPGKERELVASITSSGTSTYADSVKGRFTISRDNAKNTVYLQMNSLKPEDTAVYYCNARGYPKSWRYSRGYEYWGQGTQVTVSS	low polyreactivity
QVQLVESGGGLVQAGGSLRLSCAASGSIFRSYAMGWYRQAPGKERELVAAISSSGGRTYYADSVKGRFTISRDNAKNTVYLQMNSLKPEDTAVYYCAAYGGGGYKYDYWGQGTQVTVSS	low polyreactivity
QVQLVESAGGLVQAGGSLRLSCAASGLIFEYNAMGWYRQAPGKERELVAAITTNGGSTYYADSVKGRFTISRDNAKNTVYLQINSLKPEDTAVYYCAALGLHQVIEYDYWGQGTQVTVSS	low polyreactivity
QVQLVESGGGLVQARGSLRLSCAASGYIFFGNAMGWYRQAPGKERELVAAIRWRGTSTYYADSVKGRFTISRDNAKNTVYLQMKSLKPEDTAVYYCAADVVSSNFYGTFLYDYDYWGQGTQVTVSS	low polyreactivity
QVQLVESGGGLVQAGGSLRLSCAASGSTFDYYARGGYRQAPGKERELVAAISRTGGRTYYADSVKGRFTISRDNAKNTVNLQMNSLKPEDTAVYNCNAVTRIGGGDYDYWGQGTQVTVSS	low polyreactivity
QVQLVESGGGLVQAGGSLRLSCAASGRIFYYYTMAWYRQAPGKERELVAAISWGGVNTDYADSVKGRFTISRDNAKNTVYLQMNSLKPEDTAVYYCAAGRWSVGTYDYWGQGTQVTVSS	low polyreactivity
QVQLVESGGGLVQAGGSLRLSCAASGFTFLRNAMGWYRQAPGKERELVAAINRDGGRTYYADSVKGRFTISRDNAKNTVYLQMNSLKPADTAVYYCATTSQATSGPRRKLYYYWGQGTQVTVSS	high polyreactivity
QVQLVESGGGLVQAGGSLRLSCAASGSTLLGYTMGWYRQAPGKERELVAVISWSGGGTYYADSVKGRFTISRDNAKNTVYLQMNSLKPEDTAVYYCAAETVLGYWYYRKYYYWGQGTQVTVSS	high polyreactivity
QVQLVESGGGLVQAGGSLRLSCAASGLLFGRNVMGWYRQGPGKERELVAAISWSGGRTYYADSVKGRFTISRDNAKNTVYLQMNSLKPEDTAVYYCAADDGPGFDYWGQGTQVTESS	high polyreactivity
QVHLVESGGGLVQAGGSLRLSCAASGSTFYYAMGLYRKAPGKERELVASITFSTGSTYYADSVKGRFTISRDNAKNTVLLQMNSLKPEDTAVYYCATGVDTFSLSVEHDSWGQGTQVTVSS	low polyreactivity
QVQLVESGGGLVQAGGSLRLSCAASGFTFRGYDMGWYRQAPGKERELVATISSGGRTYYADSVKGRFTISRDNAKNTVYLQMNSLKPEDTAVYYCAAPRFGRLAFDFWGQGSQVTVSS	low polyreactivity
QVQLVESGGGLVQAGGSLRLSCAASGSTFRVYAMGWYRQAPGKERELVAAITRIGGRTYYADSVKGRFTISRDNAKNTVYLQMNSLKPEDTAVYYCAARYPGGYSSGYNYWGQGTQVTVSS	high polyreactivity
QVQLEESGGGLFQAGGSLRLSCAASGSTIFSNAMGWYRQAPGKAREVVAAITSDGGTYYADSVKGRFTISRDNAKKTVYLQMNSLKPEDTAVYYCNVGSFTGHSYGFGYWGQGTQVTVSS	low polyreactivity
QVQLVESGGGLVQAGGSLRLSCAASGRIFWGYAMGWYRQAPGKERELVAAITSGGSTYYADSVKGRFTFSRDNAKNTVYLQMNSLKPEDTAVYYCAAYYVLKLRYGHRYYYWGQGTQVTVSS	high polyreactivity
QVQLVESGGGLVQAGGSLRLSCGASGFTFQFYDRGGYRQAPGKEREFVATITWRAGSTYSADSVKGRFTISRDNAKNTVYLQMNSLKPEDTAVYYCNADYYRHSLDYDYVGYDYWGQGTQVTVSS	low polyreactivity
QVQLVESGGGLVQAGVSLRLSCAASGYIFRFNAMGWYRQAPGKERELVAVITSGARTYYADSVKGRFTISRDNAKNTVYLQMNSLKPEDTAVYYCNAGARRYLYDYWGQGTQVTVSS	low polyreactivity
QVQLVESGGGLVQAGGSLRLSCAASGRIFRVYAMGWYRQAPGKERQLVAAISYSGGRTFYADSVKGRFTISRDNSKNTVYLQMNSLIPEDTAVYYCAAKSYYTQALPPLDYWGQCTQVTVSS	low polyreactivity
EVQQVESGGGLVQPGGSLRLSCAASGYIYSRYRMGWCRQAPGKGREFVAAISGGSSTNYADSVKGRFTISRDNSKITVYLQMKSLRAEDTAVYYCAAYMIDSDPRVFWGQGTQVNVSS	low polyreactivity
QVQLVESGGGLVQAGGSLRLSCAASGSTFEYYAMGWYRQAPGKERELVAAISTAGSTYYADSVKGRFTISRDNAKNTVYLQMNSLKQEDTAVYYCAVDPSPRSYYNYYWGQGTQVTVSS	high polyreactivity
QVQLVESGGGLVQAGGSLRLSCAASGSTLPTNAMGWYRQAPGKEREFVAAISDNGGSTYYADSVKGRFTISRDNAKNTVYLQMNSLKPEDTAVYYCAADNFAPEFYYWGQGTQVTVSS	low polyreactivity
QVQLVESGGGLVQAGGSLRLSCAASGYTIRANAMGWYRQAPGKERELVAAISRSGGSTYYADSVKGRFTISRDNAKNTVYLQMNSLKPEDTAVYYCNTRQQYQFNYWGQGTQVTVSS	high polyreactivity
QVQLVESGGGLVQAGGSLRLSCAASGSIFISNAMGWYRQAPGKERELVAAISRSGARTYYADSVKGRFTISRDNAKNTVYLQMNSLKPEDTAVYYCAVDGYSPYKYDYWGQGTQVTVSS	high polyreactivity
QVQLVESGGGLVQAGGSLRLSCAASGRTFSTNAMGWYSQAPGKERELVAAISARGGSTYYADSVKGRFTISRDNAKNTVYLLLTSLKPEDTAVDYCARRPGRYSYAFDYWGQGTQVTVSS	high polyreactivity
QVQLVESGGGLGQAGGSLRLSCAASGSNFRPYAMGWYRPAPGKERELVAAISSSGGSTYYADSVKGRFTISRDNAKNTVYLQMNSLKPEDTAVYYCAAVSRSTWIHSRDYWGQGTQVTVSS	low polyreactivity
